Test results reported in patent US20250171520A1 (Regeneron, published 2025).

T1: human CD63 (human, UniProt P08962 2-238)
T1 sequence: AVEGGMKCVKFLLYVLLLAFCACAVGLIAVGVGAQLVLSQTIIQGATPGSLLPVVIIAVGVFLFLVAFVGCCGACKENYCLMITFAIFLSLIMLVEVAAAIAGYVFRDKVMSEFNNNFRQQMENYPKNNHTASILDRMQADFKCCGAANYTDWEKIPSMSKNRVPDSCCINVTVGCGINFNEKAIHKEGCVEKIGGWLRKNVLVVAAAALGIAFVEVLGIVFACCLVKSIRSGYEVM


Assays:
human CD63 [1] = molecular target: T1, human CD63; experiment: cell-based or functional assay
human CD63 [2] = molecular target: T1, human CD63; experiment: ECL cell binding, LNCAP cells
Protocol: (§1) LNCAP cells were determined to have a lower human CD63 copy number than U87MG cells. Non-transfected NIH3T3 cells, which have no detectable expression of human CD63 by fluorescence activated cell sorting (FACS), were included as a negative control.
(§2) Briefly, cell lines were rinsed once in PBS buffer without Ca²⁺/Mg²⁺ and incubated for 10 minutes at 37° C. with Enzyme Free Cell Dissociation Solution (Millipore, Cat #S-004-C) to detach the cells. Cells were then washed once with PBS with Ca²⁺/Mg²⁺ and counted with a Cellometer™ Auto T4 cell counter (Nexcelom Bioscience, LLC). Approximately 2.0×10⁴ NIH3T3/hCD63, LNCAP, U87MG or NIH3T3 cells were seeded separately onto 96-well carbon electrode plates (Meso Scale Discovery, Cat #L15XB-6) and were then incubated for one hour at 37° C. Nonspecific binding sites were blocked with 2% BSA (w/v) in PBS with Ca²⁺/Mg²⁺ for one hour at room temperature (RT). Solutions containing anti-CD63 antibodies or isotype control antibodies at a range of concentrations (1.7 pM to 100nM) in 0.5% BSA (w/v) in PBS with Ca²⁺/Mg²⁺, as well as control buffer alone, were then added in duplicate to the plate-bound NIH3T3/hCD63, LNCAP, U87MG or NIH3T3 cells and incubated for one hour at RT. Plates were subsequently washed to remove unbound antibodies using an AquaMax2000 plate washer with a cell washing head (MDS Analytical Technologies). […] Plates were washed and then incubated with Read Buffer (MSD, Cat #R92TD-2) according to the manufacturer's instructions. Luminescent signals were measured using a SECTOR Imager (MSD). Luminescence intensity, measured in relative light units (RLU), was recorded to indicate the binding intensity of each antibody at the range of concentrations tested. The ratio of signal detected with 3.7 nM antibody binding to human CD63 expressing cells compared to the same concentration of antibody binding to negative cells was reported as an indication of specificity of CD63 binding.

human CD63 [3] = molecular target: T1, human CD63; experiment: ECL cell binding, U87MG cells
Protocol: as §1, §2

[4] = molecular target: T2, recombinant human CD63 extracellular loop 2 expressed with a C-terminal Myc-Myc-hexahistidine (human); experiment: SPR (Biacore), captured mAb, 25°C
T2 construct: also called hCD63 EC loop 2-MMH; human CD63 EC loop2-MMH
Protocol: (§3) Equilibrium dissociation constants (KD) for different CD63loop reagents binding to purified anti-CD63 monoclonal antibodies were determined using a real-time surface plasmon resonance based Biacore T200 biosensor or Biacore 2000 biosensor. All binding studies were performed in 10 mM HEPES, 150 mM NaCl, 3 mM EDTA, and 0.05% v/v Surfactant Tween-20, pH 7.4 (HBS-ET) running buffer at 25° C. and 37° C. The Biacore CM5 sensor chip surface was first derivatized by amine coupling with either a rabbit anti-mouse Fc specific polyclonal antibody (GE Healthcare, Cat #BR100838) or an anti-human Fab kit (GE Healthcare, Cat #28958325) to capture anti-CD63 monoclonal antibodies. Binding studies were performed on either recombinant human CD63 extracellular loop 2 expressed with a C-terminal Myc-Myc-hexahistidine (hCD63 EC loop 2-MMH; SEQ ID NO:80) or recombinant human CD63 extracellular loop 2 expressed with a C-terminal human Fc tag (hCD63 EC loop 2-hFc; SEQ ID NO:81). Different concentrations of hCD63 EC loop 2-MMH or hCD63 EC loop 2-hFc (either tested at 50 nM-12.5 nM in a 4-fold dilution or at 90 nM-0.37 nM in 3-fold serial dilutions) were first prepared in HBS-ET running buffer and were injected over the anti-mouse Fc captured anti-CD63 monoclonal antibody surface for 4 minutes at a flow rate of […] or 50 μL/minute, while the dissociation of monoclonal antibody bound CD63 reagent was monitored for 8 or 10 minutes in HBS-ET running buffer. The association rate (kₐ) and dissociation rate (kd) were determined by fitting the real-time binding sensorgrams to a 1:1 binding model with mass transport limitation using Scrubber 2.0c curve-fitting software. Binding dissociation equilibrium constant (KD) and dissociative half-life (t½) were calculated from the kinetic rates as: […]
(§4) Binding kinetics parameters for human CD63 EC loop 2 protein binding to different anti-CD63 monoclonal antibodies of the invention at 25° C. and 37° C. are shown in Tables 15 through 18.

[5] = molecular target: T3, recombinant human CD63 extracellular loop 2 expressed with a C-terminal human Fc tag (human); experiment: SPR (Biacore), captured mAb, 25°C
T3 construct: also called hCD63 EC loop 2-hFc; human CD63 EC loop2-hFC
Protocol: as §3, §4

[6] = molecular target: T2, recombinant human CD63 extracellular …; experiment: SPR (Biacore), captured mAb, 37°C
Protocol: as §3, §4

[7] = molecular target: T3, recombinant human CD63 extracellular …; experiment: SPR (Biacore), captured mAb, 37°C
Protocol: as §3, §4

human CD63 [8] = molecular target: T1, human CD63; experiment: ECL cell binding, NIH3T3/hCD63 cells
Protocol: as §1, §2

human CD63 [9] = molecular target: T1, human CD63; experiment: flow cytometry, HEK293 cells endogenously expressing human CD63
Protocol: Relative cell surface binding of the anti-CD63 antibodies to human CD63 expressing cells was accessed via flow cytometry using CD63 positive HEK293 cells (ATCC, Cat #CRL-1573), which endogenously express human CD63, and CD63 negative HEK293/CD63 knock out cells. For the assay, cells were plated in PBS without calcium and magnesium (VWR, Cat #45000-446), containing 2% FBS (Saradigm Cat #1500-500) (Staining Buffer) in 96 well V-bottom plates (Axygen Scientific, Cat #P-96-450-V-C-S). Cells were then incubated with anti-CD63 antibodies or isotype control antibodies at concentrations ranging from 100 nM to 1.7 pM for 30 minutes on ice. Wells containing no antibody were used as controls. HEK293/CD63KO cells were stained with only the highest concentration (100 nM) of the antibodies. […] Cells were then washed and fixed using a 50% solution of Cytofix (BD Biosciences, Cat #554655) diluted in PBS. Samples were run on the Intellicyte Hypercyt flow cytometer and results were analyzed in ForeCyt software (Intellicyte) to calculate the mean fluorescent intensity (MFI). Measured values were analyzed using a four parameter logistic equation over a 12-point response curve using GraphPad Prism and the resulting EC₅₀ values are reported (Table 12). The signal to noise ratio (S/N) was determined by calculating the ratio of the anti-CD63 antibodies or the control antibodies MFI to the wells containing no antibodies (Table 12).

T3 sequence (chain, as listed by the source limits assumed): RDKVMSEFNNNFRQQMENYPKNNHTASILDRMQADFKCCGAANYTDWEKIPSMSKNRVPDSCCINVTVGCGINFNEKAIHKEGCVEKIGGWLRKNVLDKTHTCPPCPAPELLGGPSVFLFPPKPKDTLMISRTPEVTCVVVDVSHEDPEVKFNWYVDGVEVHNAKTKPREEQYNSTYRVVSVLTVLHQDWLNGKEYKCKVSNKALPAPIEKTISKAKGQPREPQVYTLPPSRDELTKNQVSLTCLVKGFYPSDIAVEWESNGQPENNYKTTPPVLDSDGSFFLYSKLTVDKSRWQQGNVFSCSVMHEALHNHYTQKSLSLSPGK
T2 sequence (chain, as listed by the source limits assumed): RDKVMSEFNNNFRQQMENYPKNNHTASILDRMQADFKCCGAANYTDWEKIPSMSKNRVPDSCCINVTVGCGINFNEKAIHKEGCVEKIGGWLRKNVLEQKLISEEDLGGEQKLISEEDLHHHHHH

Row | Binder | T47D (nM) IC50, indirect cytotoxicity with anti-mFc Fab-MMAF (human CD63 [1]) [nM] | EC50 (human CD63 [2]) [nM] | ratio at 3.7 nM Ab of cell binding signal (RLU) to human CD63 cells relative to negative NIH3T3 (human CD63 [2]) [fold] | ratio at 3.7 nM Ab of cell binding signal (RLU) to human CD63 cells relative to negative NIH3T3 (human CD63 [3]) [fold] | 50 nM or 90 nM Ag Bound (RU) [4] [RU] | t½ [4] [min] | 50 nM Ag Bound (RU) [5] [RU] | t½ [5] [min] | 50 nM Ag Bound (RU) [6] [RU] | t½ [6] [min] | 50 nM Ag Bound (RU) [7] [RU] | t½ [7] [min] | EC50 (human CD63 [8]) [nM] | ratio at 3.7 nM Ab of cell binding signal (RLU) to human CD63 cells relative to negative NIH3T3 (human CD63 [8]) [fold] | HEK293 (S/N), MFI of antibody over wells with no antibody (human CD63 [9]) | Kd [4] [nM] | koff [4] [s⁻¹] | kon [4] [M⁻¹ s⁻¹] | EC50 (human CD63 [3]) [nM]
1 | H2M12450N (antibody, V domains shown, also called anti-CD63 antibody) VH: QVQLQESGPKVVKPSETLSLTCTVSGGSISSYYWNWIRQSPGKGLEWIGYTKRGYTDYNPSLRSRVTISEDTSKNQFSLRISSVTAADTAVYYCAQMGWGSHAFDMWGQGTMVAVSS VL: EIVLTQSPGTLSLSPGERATLSCRASQSVNSRYLAWYQQKPGQAPRLLIYGASSRATGIPDRCSGSGSGTDFTLTISRLEPEDFAVYYCQQYGSSPWTFGQGTKVEIK | 0.24 | 0.21 | 20 | 175 | 65 | 41 | 134 | 248 | 58 | 57 | 138 | 236 | 0.28 | 230 | 26.7 |  |  |  | 
2 | H4H12450N (antibody, V domains shown, also called anti-CD63 antibody) VH: QVQLQESGPKVVKPSETLSLTCTVSGGSISSYYWNWIRQSPGKGLEWIGYTKRGYTDYNPSLRSRVTISEDTSKNQFSLRISSVTAADTAVYYCAQMGWGSHAFDMWGQGTMVAVSS VL: not shown |  |  |  |  | 24 | 157 |  |  |  |  |  |  |  |  |  | 0.53 | 7.37e-05 | 139000 | 
3 | H1M12451N (antibody, V domains shown, This one was detected or captured with anti-mouse Fc reagents; also called HIM12451; anti-CD63 antibody) VH: QVQLQESGPGLMKPSETLSLTCTVSGGSFSSYYWNWIRQSPGKGLEWIGYIRYSGDTNYKPSLKSRFTISIDTSKNLFSLRLKSVTAADTAVYYCARMGLGSDAFDIWGQGTMVTVSS VL: EIVLTQSPGTLSLSPGERATLSCRASQSVNNNYLAWYQQKPGQAPRLLIYGVFNRATNIPDRFSGSGSGTDFTLTISRLEPEDFAVYYCQQYGSSPWTFGQGTKVEIK |  | 1.7 | 7 | 52 | 52 | 27 | 107 | 138 | 44 | 6 | 118 | 35 | 0.57 | 91 | 31.6 |  |  |  | 0.95
4 | H2M12395N (antibody, V domains shown, also called anti-CD63 antibody) VH: QVQLQESGPRLVKPSETLSLTCIVSGGSISNFYWNWIRQSPGKGLEWIGYFFYTGTIDYNPSLKSRVTISLDTSKNQFSLNLRLLTAADAAVYYCARMGLGANAFDIWGHGTMVTVSS VL: EIVLTQSPGTLSLSPGERATLSCRASQHVSSNYLAWYQQKPGQAPRLLIYGGSSRATGIPDRFSGSGSGTDFTLTISRLEPADFAVFYCQQYGNSPWTFGQGTKVEMK |  | 0.35 | 18 | 171 | 42 | 6 | 117 | 23 | 31 | 1 | 123 | 6 | 0.29 | 256 | 21 |  |  |  | 0.79
